# From paper PMC12323374
# Key:
# Assay in all cases: SEC
# [1] = target: Nsp3 Ubl1 variant D80R E81R (SARS-CoV-2)
# [2] = target: Nsp3 Ubl1 variant E26R E29R (SARS-CoV-2)
# [3] = target: Nsp3 Ubl1 variant E49R E52R (SARS-CoV-2)
# [4] = target: Nsp3 Ubl1 variant K33E K38E (SARS-CoV-2)
# [5] = target: SARS-CoV-2 Nsp3 NAB domain, longer fragment, residues 1,050-1,216 (SARS-CoV-2)
# [6] = target: SARS-CoV-2 Nsp3 ubiquitin-like 1 (Ubl1) domain, residues 1-111 (SARS-CoV-2)
substance,measurement,setting,value
Nsp3 Ubl1 variant D80R E81R (domain or fragment),stoichiometry N,[1],2
Nsp3 Ubl1 variant E26R E29R (domain or fragment),stoichiometry N,[2],2
Nsp3 Ubl1 variant E49R E52R (domain or fragment),stoichiometry N,[3],2
Nsp3 Ubl1 variant K33E K38E (domain or fragment),stoichiometry N,[4],2
"SARS-CoV-2 Nsp3 NAB domain, longer fragment, residues 1,050-1,216 (domain or fragment)",stoichiometry N,[5],2
"SARS-CoV-2 Nsp3 ubiquitin-like 1 (Ubl1) domain, residues 1-111 (domain or fragment)",stoichiometry N,[6],2
